According to patent US20210317231A1 (BYONDIS B V, published 2021):
Like-named read-outs stand apart in the source and are kept apart here.

T1: human 5T4 oncofoetal antigen (human, UniProt Q13641 32-420)
T1 construct: whole, on cells; also called hu 5T4; human 5T4 antigen
T1 sequence (looked up): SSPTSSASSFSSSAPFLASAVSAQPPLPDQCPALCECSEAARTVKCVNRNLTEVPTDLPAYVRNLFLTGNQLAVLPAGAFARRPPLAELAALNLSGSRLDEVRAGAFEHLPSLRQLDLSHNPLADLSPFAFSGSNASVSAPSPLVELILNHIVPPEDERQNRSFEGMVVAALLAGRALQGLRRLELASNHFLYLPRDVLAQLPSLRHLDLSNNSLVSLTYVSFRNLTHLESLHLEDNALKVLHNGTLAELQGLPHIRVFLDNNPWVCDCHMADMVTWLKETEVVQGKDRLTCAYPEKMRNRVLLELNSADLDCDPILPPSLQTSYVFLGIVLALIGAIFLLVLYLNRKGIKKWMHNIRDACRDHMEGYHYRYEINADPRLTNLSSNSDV

T2: cynomolgus monkey 5T4 antigen (cynomolgus monkey, UniProt Q4R8Y9 35-420)
T2 construct: whole, on cells; also called cyno 5T4
T2 sequence (looked up): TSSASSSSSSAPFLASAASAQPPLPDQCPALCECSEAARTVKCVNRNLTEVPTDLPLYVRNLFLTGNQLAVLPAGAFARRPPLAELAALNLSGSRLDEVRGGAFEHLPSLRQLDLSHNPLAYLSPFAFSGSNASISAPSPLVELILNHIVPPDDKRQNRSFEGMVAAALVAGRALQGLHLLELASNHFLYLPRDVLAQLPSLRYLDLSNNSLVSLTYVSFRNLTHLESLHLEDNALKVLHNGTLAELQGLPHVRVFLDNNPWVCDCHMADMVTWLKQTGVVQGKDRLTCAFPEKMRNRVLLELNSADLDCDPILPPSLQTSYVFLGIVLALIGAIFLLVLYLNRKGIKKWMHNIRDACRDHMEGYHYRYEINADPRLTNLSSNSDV


Assays:
[1] = target: T1, human 5T4 oncofoetal antigen; test: flow cytometry, MDA-MB-468 cells
Procedure: (§1) 17 antibodies were selected and affinity to 5T4 antigen was measured using MDA-MB-468 cells, PA-1 cells and Chinese Hamster Ovary (CHO) mammalian cells expressing human or cyno 5T4 antigen (Table 2). In the current application the utilized CHO cells are referred to as CHOZN as these CHO cells expressing human or cyno 5T4 antigen were obtained using the CHOZN® Platform of Sigma-Aldrich. CHOZN cells (SAFC) were transiently transfected, using an Amaxa nucleofector device (Lonza) according to the manufacturer's instructions. Standard, commercially available mammalian expression vectors (SAFC, Life Technologies) were used, which contained the full length human and cyno 5T4 antigen coding sequence (according to accession number NP 006661.1 and Q4R8Y9 respectively), preceded by a human CMV promoter. Transiently transfected CHOZN cells were cultured according the manufacturer's instructions, before being used in antibody binding studies. The 17 selected antibodies are characterised by the amino acid sequences according to the following table (Table 1).
(§2) MDA-MB-468 cells, PA-1 cells or CHOZN cells expressing human or cyno 5T4 antigen (100,000 cells/well in a 96-well plate) were washed three times with ice-cold FACS buffer (1×PBS (Lonza) containing 0.2% v/w BSA (Sigma-Aldrich, St. Louis, Mo.)) and 0.02% v/w NaN3 (Sigma-Aldrich), followed by the addition of a concentration range of each primary mAb (50 μl/well) diluted in ice-cold FACS buffer. After an incubation of 30 minutes at 4° C., cells were washed three times with ice-cold FACS buffer and 50 μl/well secondary mAb (AffiniPure F(ab′)2 fragment Goat-anti-human IgG-APC, 1:6,000 dilution, Jackson Immuno Research) was added. After 30 minutes at 4° C., cells were washed twice and resuspended in 150 μl FACS buffer. Fluorescence intensities were determined by flow cytometry (BD FACSVerse, Fanklin Lakes, N.J.) and indicated as the median fluorescence intensity (MFI). Curves were fitted by nonlinear regression using the sigmoidal dose-response equation with variable slope (four parameters) in GraphPad Prism (version 5.01/6.01 for Windows, GraphPad, San Diego, Calif.). EC₅₀ values were calculated as the concentration in μg/ml that gives a response half way between bottom and top of the curve, when using a 4 parameter logistic fit.

[2] = target: T2, cynomolgus monkey 5T4 antigen; test: flow cytometry, CHOZN cells expressing cyno 5T4
Procedure: as §2

[3] = target: T1, human 5T4 oncofoetal antigen; test: flow cytometry, CHOZN cells expressing hu 5T4
Procedure: as §1, §2

[4] = target: T2, cynomolgus monkey 5T4 antigen; test: flow cytometry, CHOZN cells expressing cyno 5T4; remark: listed apart in the source
Procedure: as §1, §2

[5] = target: T1, human 5T4 oncofoetal antigen; test: flow cytometry, PA-1 cells
Procedure: as §1, §2

[6] = target: T2, cynomolgus monkey 5T4 antigen; test: flow cytometry, CHOZN cells expressing cyno 5T4; remark: listed apart in the source
[7] = target: T1, human 5T4 oncofoetal antigen; test: flow cytometry, CHOZN cells expressing hu 5T4; remark: listed apart in the source

| Binder | EC50 [1] [µg/mL] | fold improvement of binding compared to H8 on cyno 5T4 [2] [fold] | EC50 [3] [µg/mL] | EC50 [4] [µg/mL] | EC50 [5] [µg/mL] | EC50 [6] [µg/mL] | EC50 [7] [µg/mL] |
| --- | --- | --- | --- | --- | --- | --- | --- |
| chimeric anti-5T4 monoclonal antibody 841 (antibody, human IgG1, V domains shown) VH: QSLEESGGRLVTPGTPLTLTCKASGFSLSTYWMSWVRQAPGKGLEWIGIMLSYGNTVYANWAKGRFTISKTSSTTVDLKITSPTTEDTATYFCARGLYGGYPNYGVYDLWGQGTLVTVSS VL: DVVMTQTPASVEAAVGGTVTIKCQASQSISSYLSWYQQKPGQPPKLLIYAASNLASGVSSRFKGSRSGTEYTLTISDLESADAATYYCQCTDYGSNYVGAFGGGTEVVVK | 0.1 | 32 | 0.24 | 0.14 | 0.02 |  |  |
| chimeric anti-5T4 monoclonal antibody 829 (antibody, human IgG1, V domains shown) VH: QSLEESGGRLVTPGTPLTLTCTASGFSLSSYDMSWVRQAPGKGLEYIGWINSDDGAYYANWAKGRFTISRTSTTVDLKITSPTTEDTATYFCARDAGSTYLYGLDPWGPGTLVTVSS VL: DVVMTQTPSSVSAGVGGTVTIKCQASQSISSYLAWYQQKPGQRPKLLIYAASTLASGVSSRFKGSGSGTEYTLTINDLESADAATYYCQCTYYGGTYNTFGGGTEVVVK | 0.17 | 32 | 0.24 | 0.22 | 0.07 |  |  |
| chimeric anti-5T4 monoclonal antibody 847 (antibody, human IgG1, V domains shown) VH: QSVEESGGRLVTPGTPLTLTCTVSGFSLSSYDMSWVRQAPGKGLEYIGYINSDGSAYYASWAKGRFTISKTSSTTVDLKITSPTTEDTATYFCARDAGSTYLYGMDPWGPGTLVTVSS VL: DVVMTQTPASVSEPVGGTVTINCQASQSIYSYLAWYQQKPGQRPKLLIYAASTLASGVSSRFKGSGSGTQFTLTISDLESADAATYYCQCTYYGGTFNTFGGGTEVVVK | 0.2 | 32 | 0.22 | 0.2 | 0.22 |  |  |
| chimeric anti-5T4 monoclonal antibody 845 (antibody, human IgG1, V domains shown) VH: QSLEESGGRLVTPGTPLTLTCTVSGIDLSSYTMNWVRQAPGKGLEWIGVITSHNTYYASWAKGRFTISKTSTTVDLKITSPTTEDTATYFCARSNYGSTIYYMGGMDPWGPGTLVTVSS VL: DVVMTQTPASVSAAVGGTVTINCQASQSIGSYLAWYQHQPGQPPKLLIYSASTLESGVSSRFEGSRSGTEYTLTISDLDSADAATYYCQCTDYGASYLGAFGGGTEVVVK | 0.11 | 32 | 0.2 | 0.17 | 0.05 |  |  |
| chimeric anti-5T4 antibody 899 with HC-41C mutation (antibody, human IgG1, V domains shown, Human IgG1 constant parts; also called chimeric 899; 899 chimeric) VH: QSVEESGGRLVTPGTPLTLTCTVSGFSLSSYTMSWVRQACGKGLEYIGIISSSDGTWYANWVKGRFTISKTSTTVDLKMTSLTTEDTATYFCARDGTGNKYYTWDRLDLWGQGTLVTVSS VL: NIVMTQTPSPVSGAVGGTVTINCQASQSIYNELSWYQQKPGQPPKLLIYYASTLASGVSSRFKGSGSGTQFTLTISGVESVDAATYYCQQGYSSSNVDNVFGGGTEVVVK |  |  |  |  |  | 0.18 | 0.14 |
| chimeric anti-5T4 monoclonal antibody 834 (antibody, human IgG1, V domains shown) VH: QSVEESGGRLVTPGTPLTLTCTVSGFSLSTYSMSWVRQAPGKGLEWIGVISRGGSAYYASWAKGRFTISKTSTTVDLKVTSPTTEDTATYFCARGAISSGYYVYDGMDLWGPGTLVTVSS VL: DIVMTQTPGSVEAAVGGTVTIKCQASESISSYLAWYQQKPGQPPKFLIYSASTLASGVPSRFKGSGSGTEFTLTISDLESADAATYYCQCTDYGSDYMGAFGGGTGVVVK | 0.13 | 32 | 0.19 | 0.13 | 0.05 |  |  |
| humanized anti-5T4 antibody 789a with HC-41C mutation (antibody, V domains shown) VH: EVKVEESGGGLVQPGGSLRLSCAASGFSLSSYWMSWVRQACGKGLEWVSIIAGRGSTYYASWAKGRFTISKDNSEGMVYLQMNSLRAEDTAVYYCARVSSIYYTFNLWGQGTTVTVSS VL: EIVLTQSPSSLSASVGDRVTITCQSSQSVYSNNELSWYQQKPGKAPKLLIYYASTLASGVPSRFSGSGSGTDFTLTISSLQPEDFATYYCQGSYYSGSGWYYAFGQGTKLEIKR |  |  |  |  |  | 0.33 | 0.2 |
| chimeric anti-5T4 monoclonal antibody 908 (antibody, human IgG1, V domains shown) VH: QSVEESGGRLVTPGTPLTLTCTVSGFSLSNFAMSWVRQAPGKGLEWIGIINGYGSIYYATWAKGRFTISKTSTTVDLKITSPTTEDTATYFCARGDAGRTYNHYFNIWGPGTLVTVSL VL: DVVMTQTPASVEAAVGGTVTIKCQASQSISSWLSWYQQKPGQRPKLLIYAASNLASGVPSRFKGSGSGTQFTLTISDLESDDAATYYCQQGYTSYNVDNAFGGGTEVVVK | 0.21 | 32 | 0.23 | 0.24 | 0.04 |  |  |
| prior art anti-5T4 antibody H8 (H8 humanized variant 1) (antibody, human IgG1, kappa, V domains shown) VH: QVQLVQSGAEVKKPGASVKVSCKASGYSFTGYYMHWVKQSPGQGLEWIGRINPNNGVTLYNQKFKDRVTMTRDTSISTAYMELSRLRSDDTAVYYCARSTMITNYVMDYWGQGTLVTVSS VL: DIVMTQSPDSLAVSLGERATINCKASQSVSNDVAWYQQKPGQSPKLLISYTSSRYAGVPDRFSGSGSGTDFTLTISSLQAEDVAVYFCQQDYNSPPTFGGGTKLEIKR |  |  |  | 8.11 |  | 1.99 |  |
| chimeric anti-5T4 monoclonal antibody 868 (antibody, human IgG1, V domains shown) VH: QSVEESGGRLVTPGTPLTLTCTASGFSLSDYTMGWVRQAPGKGLEWIGIINGYGSTYYANWAKGRFAISKTSTTVDLKITSPATEDTATYFCARGDTGRTYDMHFNLWGQGTLVTVSS VL: AYDMTQTPASVSAAVGGTVTIKCQASESIRSWLAWYQQKPGQPPKLLIYSASTLASGVSSRFKGSGSGTQFTLTIGDLESADAATYYCQQGYTSSNLDNAFGGGTEVLVK | 0.14 | 32 | 0.22 | 0.17 | 0.04 |  |  |
| chimeric anti-5T4 monoclonal antibody 811 (antibody, human IgG1, V domains shown) VH: QSVEESGGRLVTPGTSLTLTCTASGFSLSTYAMIWVRQAPGKGLEWIGIINSSGYTYYANWAKGRFTISKTSTTVDLKITSPTTEDTATYFCARGNAGISYDVSFNLWGQGTLVTVSS VL: AYDMTQTPASVEAGVGGTVTINCQASESISSWLAWYQQKPGQPPNLLIYEASKLASGVPSRFSGSGSGTEFTLTISGVESADAATYYCQQGWTSSNIDNAFGGGTEVVVK | 0.73 | 32 | 0.34 | 0.25 | 0.4 |  |  |
| chimeric anti-5T4 monoclonal antibody 828 (antibody, human IgG1, V domains shown) VH: QSVEESGGRLVTPGTPLTLTCTVSEIDLSTYAMSWVRQAPGKGLEWIGIISAGGSAYYASWAKGRFTISRTSTTVDLKMTSLTTEDTATYFCARGAAYAGYTYGFSFFDIWGPGTLVTVSL VL: DIVMTQTPSSVSAAVGGTVTINCQASQNIYSNLAWYQQKPGQRPKLLIYGASNLESGVPSRFKGSGSGTEYTLTISDLESDDAATYYCQSIDYGNNYLGSFGGGTEVVVK | 0.1 | 7 | 0.19 | 0.82 | 0.1 |  |  |
